The source of these data is the supplement of paper PMC9233669.

The test system of this series is biotinyl-Phe-oxazolone. The series is described as follows: self-aminoacylation, catalytic enhancement (BFO) (fold over background); higher = more active; k-Seq, kA / k0A0; sequences stand for … in GGGAAUGGAUCCACAUCUACGAAUUC…UUCACUGCAGACUUGACGAAGCUG
In a few lines:
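Mutagenized RNA pools with a 21-nt variable region (0.43 μM) reacted with each biotinyl-aminoacyl-oxazolone at 2–1250 μM. Reactions ran in 50 μL HEPES/NaCl/KCl/MgCl2/CaCl2 buffer with 5% acetonitrile, pH 6.9–7.0, for 90 minutes at room temperature. Streptavidin-captured RNA was quantified by triplicate qPCR and Illumina sequencing, and per-sequence fraction reacted was fit to a pseudo-first-order model with 1000 bootstraps. Catalytic enhancement is median kA divided by the uncatalyzed rate, the low-activity peak of a bimodal Gaussian fit.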

Variants at the floor of the assay were thinned out.

As for “AAGCUUCCUAAUAGUCGCAAG [Fam3.1 aminoacylation ribozyme variant]”, the self-aminoacylation was found to be 2.32.

For “AAGCUUGCUAAUAGUUGCAAG [Fam3.1 aminoacylation ribozyme variant]”, the self-aminoacylation came out at 2.19.

With “AAGGUUGCCAAUAGUCGCAAG [Fam3.1 aminoacylation ribozyme variant]”, the self-aminoacylation was 2.4.

Regarding “AAGGUUGCUAAUAGUCGCACG [Fam3.1 aminoacylation ribozyme variant]”, the self-aminoacylation is 2.39.

Take “AAGUUCGCUAAUAGUCUCAAG [Fam3.1 aminoacylation ribozyme variant]”: the self-aminoacylation came to 2.72.

As to “AAGUUCGGUAAUAGUCGCAAG [Fam3.1 aminoacylation ribozyme variant]”, the self-aminoacylation stood at 3.24.

On to “AAGUUUACUAAUAGUCGAAAG [Fam3.1 aminoacylation ribozyme variant]”, for which the self-aminoacylation came to 2.51.

Turning to “AAGUUUCCUAAUAGUUGCAAG [Fam3.1 aminoacylation ribozyme variant]”, the self-aminoacylation was determined as 2.63.

As to “AAGUUUCCUAAUGGUCGCAAG [Fam3.1 aminoacylation ribozyme variant]”, the self-aminoacylation came out at 2.62.

Regarding “AAGUUUGCUAACAGCCGCAAG [Fam3.1 aminoacylation ribozyme variant]”, the self-aminoacylation turned out to be 3.09.

On to “AAGUUUGCUAAUGGUCGCAAC [Fam3.1 aminoacylation ribozyme variant]”, for which the self-aminoacylation was found to be 6.25.

For “AAGUUUGCUGACAGUCGCAAG [Fam3.1 aminoacylation ribozyme variant]”, the self-aminoacylation came out at 2.12.

Take “AAGUUUGCUUAUAGUCGCAAA [Fam3.1 aminoacylation ribozyme variant]”: the self-aminoacylation stood at 2.38.

For “AAGUUUUCCAAUAGUCGCAAG [Fam3.1 aminoacylation ribozyme variant]”, the self-aminoacylation was found to be 2.43.

On to “AAGUUUUCUAAUAGUCGCAAU [Fam3.1 aminoacylation ribozyme variant]”, for which the self-aminoacylation stood at 2.37.

“AAGUUUUCUCAUAGUCGCAAG [Fam3.1 aminoacylation ribozyme variant]”: the self-aminoacylation turned out to be 3.59.

In the case of “AAUACCCUGGUCAUCGAGUUA [Fam2.1 aminoacylation ribozyme variant]”, the self-aminoacylation turned out to be 2.17.

With “ACACACUUCAAGCGAUCGGUC [Fam1B.1 aminoacylation ribozyme variant]”, the self-aminoacylation amounted to 2.18.

For “ACGUUUGCUAAUAGUCGCAGG [Fam3.1 aminoacylation ribozyme variant]”, the self-aminoacylation was 3.87.

As to “ACGUUUGCUAAUAGUCGGAAG [Fam3.1 aminoacylation ribozyme variant]”, the self-aminoacylation amounted to 3.98.

On to “AGGUUUGCUUAUAGUCGCAAG [Fam3.1 aminoacylation ribozyme variant]”, for which the self-aminoacylation amounted to 2.89.

For the sequence “AGGUUUUCUAAUAGUCGCAAG [Fam3.1 aminoacylation ribozyme variant]”, the self-aminoacylation stood at 2.83.

Consider “AGUACCCUGGUCAUCGAGUUA [Fam2.1 aminoacylation ribozyme variant]”, for which the self-aminoacylation was 2.58.

Consider “AUUAACCUAGGUCAUCGUGUG [Fam2.2 aminoacylation ribozyme variant]”, for which the self-aminoacylation stood at 3.17.

For “AUUACCCUGGUCAGCGAUUGA [Fam2.1 aminoacylation ribozyme variant]”, the self-aminoacylation amounted to 2.52.

Regarding “AUUACCCUGGUCAUCGUGUGG [Fam2.1 aminoacylation ribozyme variant]”, the self-aminoacylation was found to be 2.9.

Turning to “AUUACCCUGGUCGUCGAGUGG [Fam2.1 aminoacylation ribozyme variant]”, the self-aminoacylation was 2.7.

“AUUAGCCUCGUCAUCGAGUGA [Fam2.1 aminoacylation ribozyme variant]”: the self-aminoacylation turned out to be 2.19.

Regarding “AUUAGCCUGGUCAUCGAGUGC [Fam2.1 aminoacylation ribozyme variant]”, the self-aminoacylation stood at 2.04.

As to “AUUCAACUAGGUCAUCGUGUG [Fam2.2 aminoacylation ribozyme variant]”, the self-aminoacylation was determined as 5.52.

As for “AUUCAACUAGGUCGUCGGGUG [Fam2.2 aminoacylation ribozyme variant]”, the self-aminoacylation turned out to be 6.9.

On to “AUUCACCUACGUCAUCGGCUG [Fam2.2 aminoacylation ribozyme variant]”, for which the self-aminoacylation worked out at 2.24.

On to “AUUCACCUACUUCAUCGGGUG [Fam2.2 aminoacylation ribozyme variant]”, for which the self-aminoacylation is 3.44.

As for “AUUCACCUAGCUCGUCGGGUG [Fam2.2 aminoacylation ribozyme variant]”, the self-aminoacylation was 4.07.

In the case of “AUUCACCUAGGUCAUCGUGCG [Fam2.2 aminoacylation ribozyme variant]”, the self-aminoacylation turned out to be 5.13.

Regarding “AUUCACCUAGGUCCUCGUGUG [Fam2.2 aminoacylation ribozyme variant]”, the self-aminoacylation came to 5.79.

Turning to “AUUCACCUAGGUGAUCGGGUC [Fam2.2 aminoacylation ribozyme variant]”, the self-aminoacylation worked out at 2.84.

Take “AUUCACCUAGUUCAUCGGGAG [Fam2.2 aminoacylation ribozyme variant]”: the self-aminoacylation was determined as 2.23.

For “AUUCACCUAGUUCAUCGGGUU [Fam2.2 aminoacylation ribozyme variant]”, the self-aminoacylation was 5.74.

Regarding “AUUCAGCUAGGUCAUCGGAUG [Fam2.2 aminoacylation ribozyme variant]”, the self-aminoacylation came out at 2.91.

With “CAGUUUCCUAAUAGUCGCAAG [Fam3.1 aminoacylation ribozyme variant]”, the self-aminoacylation is 2.17.

Regarding “CCACACUUCAAACAACCGGUC [Fam1B.1 aminoacylation ribozyme variant]”, the self-aminoacylation was 2.26.

“CCACACUUCAAGAAUUCGGUC [Fam1B.1 aminoacylation ribozyme variant]”: the self-aminoacylation was 7.52.

Consider “CCACUUCAAACAAUCGAUCUG [Fam1A.1 aminoacylation ribozyme variant]”, for which the self-aminoacylation is 4.61.

Regarding “CCCCACUACAAGCAAUCGGUC [Fam1B.1 aminoacylation ribozyme variant]”, the self-aminoacylation was found to be 2.24.

“CCCCACUUCAAGCAAUAGGUC [Fam1B.1 aminoacylation ribozyme variant]”: the self-aminoacylation was 2.02.

For the sequence “CCUCACUUCAAGCAAUCGGAC [Fam1B.1 aminoacylation ribozyme variant]”, the self-aminoacylation was 2.16.

For “CUAAAUCAAACAAUCGGUCUG [Fam1A.1 aminoacylation ribozyme variant]”, the self-aminoacylation came to 3.19.

For “CUAAUUCAAAUAAUCGGUCUG [Fam1A.1 aminoacylation ribozyme variant]”, the self-aminoacylation turned out to be 2.58.

With “CUACAUCAAACAAGCGGUCUG [Fam1A.1 aminoacylation ribozyme variant]”, the self-aminoacylation came out at 4.11.

For “CUACGUCAAACAAUUGGUCUG [Fam1A.1 aminoacylation ribozyme variant]”, the self-aminoacylation stood at 2.06.

With “CUACGUCAAACGAUCGGUCUG [Fam1A.1 aminoacylation ribozyme variant]”, the self-aminoacylation was found to be 3.76.

Regarding “CUACUUCAAACAAUCUGUCUG [Fam1A.1 aminoacylation ribozyme variant]”, the self-aminoacylation was found to be 3.23.
